Measured values taken from the domain aggregation screens of Martell et al. (2025).

Assay: soluble fraction after stress (log2 fold change); higher = more stays soluble; pooled small domains, quantitative proteomics
Details: stress: 75 degC
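Further: 20 min heating vs room temperature control held 20 min.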

HMFYPIAHTLTKLNIRSGPGEQYQKLATFENNHDLVVLTQQNEWVQVRGKSDEQVIIGWVHSSFLSPT
soluble fraction (log2): -2.8

HMNLVRQHTDYAFRLLVALSQAPGKPISTRTLASAADVPYQFASKIMQKLHEEGLVESVMGPFGGFRLVQ
soluble fraction (log2): -3.15

HMQAITVNNEGKIFLNTIPVTLEELSSKLESLKSSTPEFPVVIRGDSGSQYQGIMDVLNVVGRLGITQIGL
soluble fraction (log2): -0.708

HMIRDTTMYPVSVNGKKRYEWTVSKSISDDELKQQVLELEEIKKWIEGHEIKKLIFVPGRAINIV
soluble fraction (log2): -0.696

HMNKITIDQAKEIALNHAKLTAEQVSFIRTESEFDDGIEKYNIEFYYNNQKYDYDINAVNGQIIQYDLEG
soluble fraction (log2): 0.159

HMEKMLENIDLKAAVEALPEREKKVILLRYYRGMTQDAAAKVMKVSQVQISRIEKRAIEILREKL
soluble fraction (log2): -2.54

HMRLDVALRGVLLDGDPTQSRAFVLVSGTTSTYRLGETVQSAELVAINADTITLRTETGLHVIGFDGLI
soluble fraction (log2): -2.77

HMQISDESQLREVVSKILEENEQSVIDYKNGKTRAMGFIIGQVMKATRGKANPQLVNEIVKEMLDE
soluble fraction (log2): 0.0956

HMVKSDLVGHRFILVEDVTPKLTPKYHYSGINWKLITTDNLVAGTRVEVIQVDVGKFHIKAIK
soluble fraction (log2): -1.85

HMDITKPKISFEPGEMVRVVDGPFNDFSGVVEEVNYEKSKVRVAVLIFGRSTPVELQFNQIEK
soluble fraction (log2): -1.37

HMNIAESIRKYRKASGLTQEEMAKRLGVTTPAVSKWENGITNPDIALLAPIARLFHISVDTLLSYR
soluble fraction (log2): -1.83

HMFLTPLEEARLVIEEIVIPKNIAVDLSPRPSALRKQQHELIAHYQLKSFSVGNERTKRLRILPKVI
soluble fraction (log2): 0.229

HMPTKSDLLQWIKDRASKMGGAFTNSGAYALADAGVDGPRALSSEINKLLTYVNWERSVEADDVIRL
soluble fraction (log2): -0.455

HMPYFLKQSNTRSKGLYLQIYHSFYVPGKGSRNKSYKAIGYVSELIKNGIEDPITYAKNLVDELNNNSSTP
soluble fraction (log2): -3.82

HMNFNYPVIVKNSRINVSGVLSAAKLYTINGQLLQSYKGSGEFTSKTLTKGIYILQVDNARTKVLV
soluble fraction (log2): -4.42

HMITFRINQQSQVGLRLDKFIVQQMPDYSRTRIQSWIKTKNILVNGEGKKSGYALEFDDLVEVTIPE
soluble fraction (log2): -4.81

HMRITRREQQVLHLLAMGMTTREIAGHINLTERTVRNRISNLRDKLGAQTASQLLAKAVAQGLIEP
soluble fraction (log2): -2.69

HMEIGLIRVDSRLIHGQVITKWLNYSKANVIVVVDDELSKDSFMSEIYKASAPNGIIVEILSIDDFMKNT
soluble fraction (log2): -0.0469

HMSASSTAPGSVTLRGAILTAWTAAGGERSKMGLPVGYEVRQADGTVTQTFEKGRISVSPTGTATI
soluble fraction (log2): 0.0449

HMGKIFSELTPREIEVVRLIADGLSNQQIAEELFLSNGTVRNHISTILEKTGLEHRTQIAVMWLR
soluble fraction (log2): -0.139

HMASVGTHIKRLRAAKRMTQEELAEQLHVTRQAVSAWETGKALPDVEMLERIAAALDADVTEVIYGA
soluble fraction (log2): -0.346

HMSKITNALLMMKLLSNGKVYSVKELSEELGVTERMVRNYKEQLEMSGYIIESFKGPGGGYFINKN
soluble fraction (log2): -2.61

HMASQVERGAVVVTDQRIFFIGVSSEGIEVHGTKIFGMSEKAPLYSHMKGLKKGDSFQFNGLKYVIQDIY
soluble fraction (log2): -3.57

HMKTRQVTVRNGRIEIFDKRFSTERLVFTAANLPVLEREGEVFTAGIPDSRDFINLWARDGSFAGSVPRV
soluble fraction (log2): -1.96

HMDYGSLQRAIENQLEVRNYQKPKKFLTKIIQLMETIMVRHGVMVVGLTGTGKTTVIETLSRSMEQ
soluble fraction (log2): -0.591

HMSHGYVELKAENNDALISALENHTWFENIKLDPETNLVKAILTKPIEAENLNKMLFEKGIILSHLVKRK
soluble fraction (log2): -0.376

HMSVPVNAPMPGTILDIKVKAGAAVKAGDVVMILEAMKMENEISAPQDGTIASIDVRKGDTVNSGDVLYTM
soluble fraction (log2): -0.198

HMITVEAPMPGKVLSVNVKAGDKVEAGDVLLILEAMKMQNEIMAPEDGTVSDVRVSAGDTVATGDVMVV
soluble fraction (log2): 0.0808

HMKDYTIDDIINSKVEHPLGGYQSRFKVGEYEVSVVGGRQTNHGDFIHTFELAIFDKNNNFLRNLTPVTID
soluble fraction (log2): 0.0559

HMEIFYSARAWAKLNDLVATRTYLQHLGAIAGRIGRSEGLSPDRIPDGRDGAVNGWPLWVWDRAYAEVS
soluble fraction (log2): -2.82

HMITTWAGKATTDVYGRVDANPKADAVLVIKTGWTVQVVGSKTAPDGGTWYKLIYNGKTMYANSKFIVK
soluble fraction (log2): -3.65

HMGETDDDFRELEEFVEKTKFDKLGTFMYSKEEGTPAARLPEQIHGNTKKSRYNKIMSIQQKVSNEN
soluble fraction (log2): 0.253

HMGTDVFIMTGGTRKRGATWSYYFDLGKIDGKRQKKEKGGFKTKKEAETALAKAINEYNNAGA
soluble fraction (log2): -0.506

HMGGGVERLTPRQREVLGYMAEGRSNSWIAGAIGFSEKAVVQHTSKIYDALGLAVDADDHRRVLAVLRYLT
soluble fraction (log2): -1.44

HMVKLDDLTGQDKASAEAAISNLGLKYSEQQEYSDEIEEGKVTRTDPGAGSTSLKAGDTVTVYISRGPE
soluble fraction (log2): 0.905

HMELNILELKSKERKISLEDHLYIKSFNFDNETNEYFYRLAFNSSKDLKNFKATINNDKTISIINFEI
soluble fraction (log2): -3.67

HMEALQKVSINYYDEGAGKQIAEVPLEVGAGDTEIALAVINKYMPAEYNLVSTDYQIRGGYVYVSVTPA
soluble fraction (log2): -0.49

HMALSETIYRLRTEHGLSQGDLAAELDVSRQSISKWETGSSVPELDKLVAMSRLFGVSLDELVLGE
soluble fraction (log2): -0.85

HMNVKQALLELMQRKPELTGSAIARAIGYSPAVISQYLKDGYPGDVVKLTTLIGDFIRRIDEKERS
soluble fraction (log2): -0.526

HMDGYLQLASKKNELITQLKTPPKPKRLFKDFEDRVYLITEYKVFVVSIFQNEFRLRPVNKDDFYRYTT
soluble fraction (log2): 0.293

HMKRLPFSFAKRFGVVVEDGEPPIVHHRDGASAETLLEVRRRLGQVFTLQRHDAEAFERLLTQAYQR
soluble fraction (log2): -1.15

HMDDEELDALKGIPANEYTQEQIKQISEVFHTLQKNEVKDWLNSLQLRNIELPFELRNEVFSQ
soluble fraction (log2): 0.211

HMLGAGFDSDLTARENIFLNGALLGHSRAVMRGYYDDIVNFAELHDFMDVPVKNFSSGMTSRLAFSIATIG
soluble fraction (log2): 0.236

HMFERINLIGVNGTTKKRSALVRLLDGEIVKIGVGDSLNGGQVVDISPATLTYLKSGKSIMLTLPK
soluble fraction (log2): -1.79

HMEDEFNQIASQKNVPSFLGKGKKEVINIAKKNKIKINLSGNGYVKRQIPAPGEVISHLDEVTIFLEPG
soluble fraction (log2): -0.0115

HMDIMNNILINRIKKILTEQNMSKADLSRLTGISNSSLSEYLNGKYEPKQDKIALIAKALHVSPAWLMGF
soluble fraction (log2): -1.22

HMQFSAVVLDMETRRQVAGVAVYINPKGVVKTDMRGRFVIDGAFNSVTLVRQGYESLTLERSEMTDSIWM
soluble fraction (log2): -1.64

HMSWGDVKLTMWGAEEDQTMLREMADAFIEQNADKGNVTIEIGVQSESSAKDTVLADPESAADVFA
soluble fraction (log2): 0.242

HMEETAFEKLSPLQKLRALGKPLTMINMRDGSQIAGSVQRSDDKFLYLDTGDGIAKLPVEEILRRTPM
soluble fraction (log2): 0.149

HMSWRWVPVSGAYTTSALEAAGLTRAFDDQAAAEEWLGLFFDDLLREGVGEVSLYEEDRLVYGPMSL
soluble fraction (log2): -2.49

HMEYSYKLIDLLVDRFSEEGVDPEEAREYINLFHRFSQGLDPDKRDITKYSWDELYRTVNDKKDS
soluble fraction (log2): 0.664

HMGEPLTVVAAAGGDRLDRWLAGQLAGRSRAEIQRWIEAGQVTLAGRSLKASYRLSAGDAIDVAIPPPE
soluble fraction (log2): -0.366

HMRHRITEKDKQFRIGQQVWHSEYGKGMVLSVDGIGSSARLTVSFVSGKLAKIIGTFVSTEP
soluble fraction (log2): -3.47

HMVNPHPVYRSWGLLYVEARDGDSLESIAKEFGFSVKKLAKYNEVPKDYPLEAGDIVYLEKKKK
soluble fraction (log2): -1.63

HMFSWRQHLDHFGFSDEIKKRLADAVFLNDDWNEIDRGVLTKEELLARFIENDPGIEKEIYMVMENIN
soluble fraction (log2): -0.835

HMVPLSMLTEGQIFRGQVLDITSQGIKIQLNPEQILFARLGEQVELNIGQQMAFQVRENKGDQLIIHPMQN
soluble fraction (log2): -0.353

HMDDYRSLRGQEKAAIFLMSLSQEQAAKIFANLDDEEIKEISQAMSSLGTVGSEIIERLFVEFAEQVSS
soluble fraction (log2): -1.21

HMEYTVNHYPEKHRFEVVEDGLTAYVEYRLRGDALDIIHTIVPKNLEGRGIAATLVETAYKYAKEQ
soluble fraction (log2): -1.27

HMKYFDRDLINYIQKTLAGKKIDFHEKIVPLIIELAGSDIRRVDEIIDMAEYSGKGMHVSEEMIRELAGDV
soluble fraction (log2): -0.715

HMQTTEDMEINAKVDEYLREMYLWNDEYKTLNLDHNKGYEDFFYDALGSMTTNTLDKKTYVGSDGKTYYNL
soluble fraction (log2): -0.205

HMKEVKPSDFFLSKLDEDHNLIEKFNALSSFKQKEFIEYIDSAKQEKTKHDRFEKIKPILLSNIGLNDKYR
soluble fraction (log2): -0.0777

HMVPDGFDQLTEREYQVAMAVGKGLNNKEIASQLGLGERTVKAHLTTTFEKLHVRDRVQLALIVNRL
soluble fraction (log2): -0.683

HMKDSKSALQEYALERKMGLPVYEVVDRSGPDHAPQFVIAVSLGEWRLEAKGASKRQAEQQAASLMLEEI
soluble fraction (log2): -0.174

HMSPSRRENLTAAAKEYFVNTQIRHKTFGNGVIIKRSGNIAAIRFDNGTIKQIDLIAALQAKVLSIL
soluble fraction (log2): -2.71

HMAELVISVKADGTIHYQDRQLTKEALAAVLETRPEALLNLYVDEKAPFEAFVGVVDIARLKRGGHFVIST
soluble fraction (log2): -1.94

HMYKLTTQRRAILDVIIENHDKHLNPEEIYDIVKEKYPEIGIATVYRTLQLLEKLNIIYRLNFDDGYNRYE
soluble fraction (log2): -2.87

HMSPIQLKYNEYLIYIDEGKINTAEIHGNKITGKLKEGSEYVVTIYPELIASITEKLAENNVQTQLIQ
soluble fraction (log2): -0.0829

HMSHYEYKVGDRVNLLDYDDFGILYKEKDNFYNVVVYYNGEFVEVNVKRITLEVAAKELYPEGYDLSTLFV
soluble fraction (log2): -3.97

HMKTLSKEDIGFLSDEAVGEMRKAVANGEMLELRALIDQVGEKNPIVAEKLLTLVKQYDYENLNRVLE
soluble fraction (log2): 0.102

HMEEMADILKTRIDTLDLSTRTLNALTGANIRTVGGIARKKKEDLLELAGMGEKGIQEIKKVLGGFGITL
soluble fraction (log2): -0.157

HMSIELEISADGNNYRVSGLSDGEDVRVYSVSGVQVFSGKAQGGEVVIPADNWNKGIYVISAGGSSVKVL
soluble fraction (log2): -0.594

HMSAGISVADVTNRTYDEGYNTLTAQHLLVNKVYEANETIPLDTIIRTDPVAGTKVPDNTSITVYVSSGK
soluble fraction (log2): 0.382

HMIQYRKILELHFKDISQRTISTSVGSSRNTVSDVIKRSEQLGLERLTDNMNNRWLEEFLFPEKQ
soluble fraction (log2): -4.15

HMEQIGSIIKDIRKKNNLTQNEFASILGVTFQAVSKWENDKSIPDITILKDISNKFNVDLNYLISG
soluble fraction (log2): -0.405

HMTAFAGLTPRERDLLELIAQGRDNAQIAATLGVSDKTVRNHITHIFAKLEVETRAQAIVLARNAGFGRA
soluble fraction (log2): -1.12

HMRPTAWDQISDWLDRHGSIANADVVRIAGLDTLKASKLLTTWREQGLLEPLPGRGKRNMAYVRAI
soluble fraction (log2): -0.887
